This note sets out measurements from patent US20230407373A1 (priority 2020, published 2023).

Like-named read-outs stand apart in the source and are kept apart here.

Type in all cases: binding
For one test, the system named is SARS-CoV-2 gRNA. The conditions noted are these: for target (unweighted spectral count of the protein in the RNP capture): LC-MS/MS, Probe I sample (first 199 lines of Table 2).
The subject of the next test is HCoV-OC43 gRNA and sgRNA. The conditions noted are these: for target (unweighted spectral count): OC43 Probe II, infected cells; for target (unweighted spectral count) / target (unweighted spectral count, OC43 Probe II capture): tested against no-probe control; for target (unweighted spectral count, OC43 Probe II) / background (unweighted spectral count, no-probe control): type n_48_v, 48 hpi; for target (unweighted spectral count, OC43 Probe II): OC43 Probe II capture on infected cells; for background (unweighted spectral count, no-probe control): no-probe control on infected cells; for target (spectral count) / background (spectral count): type s_36_m, Probe II; for target (spectral count): HCoV-OC43-infected HCT-8 cells; for target (spectral count) / background (spectral count) / target (unweighted spectral count, OC43 Probe II capture): 36 hpi; for background (spectral count): uninfected-probe control; for target (unweighted spectral count, OC43 Probe II capture): type n_36_v, FDR<10%.

The next test deals with gRNA of HCoV-OC43. Conditions: for target (spectral count, OC43 Probe I RNP capture) / background (spectral count, no-probe control): type n_48_v: 48 hours post-infection; for target (spectral count, OC43 Probe I RNP capture): infected cells, unweighted spectral count; for background (spectral count, no-probe control): no-probe control on infected cells; for target (spectral count) / background (spectral count): type g_36_m, 36 hpi, Probe I; for target (spectral count): HCoV-OC43-infected HCT-8 cells; for background (spectral count): uninfected-probe control.

Test [1] concerns SARS-CoV-2 gRNA and sgRNAs. Conditions: for target (unweighted spectral count in RNP capture): Probe II capture, LC-MS/MS LFQ; for background (unweighted spectral count in control): no-probe control pull-down, used as background for Probe II.

B1: CIRBP: host protein, UniProt Q14011 (protein, UniProt Q14011 1-172, looked up)
Cold-inducible RNA-binding …: MASDEGKLFVGGLSFDTNEQSLEQVFSKYGQISEVVVVKDRETQRSRGFGFVTFENIDDAKDAMMAMNGKSVDGRQIRVDQAGKSSDNRSRGYRGGSAGGRGFFRGGRGRGRGFSRGGGDRGYGGNRFESRSGGYGGSRDYYSSRSQSGGYSDRSSGGSYRDSYDSYATHNE
Turning to B1, the “target (unweighted spectral count of the protein in the RNP capture)” value in the test on SARS-CoV-2 gRNA is listed as 12. Besides, the “target (unweighted spectral count)” value in the test with HCoV-OC43 gRNA and sgRNA (24 hpi (type n_24_v)) came to 7. In addition, in the test with HCoV-OC43 gRNA and sgRNA, the “target (unweighted spectral count, OC43 Probe II)” value came out at 12; the “background (unweighted spectral count, no-probe control)” value is reported as 1; the “target (spectral count)” value came to 13; the “background (spectral count)” value was 2. Besides, in the test on gRNA of HCoV-OC43, the “target (spectral count, OC43 Probe I RNP capture)” value came out at 9 and the “background (spectral count, no-probe control)” value is listed as 1. Also, in test [1], the “target (unweighted spectral count in RNP capture)” value is given as 15 and the “background (unweighted spectral count in control)” value worked out at 1.

B2: MOV10: host protein, UniProt Q9HCE1 (protein, UniProt Q9HCE1 1-1003, looked up)
Helicase MOV-10: MPSKFSCRQLREAGQCFESFLVVRGLDMETDRERLRTIYNRDFKISFGTPAPGFSSMLYGMKIANLAYVTKTRVRFFRLDRWADVRFPEKRRMKLGSDISKHHKSLLAKIFYDRAEYLHGKHGVDVEVQGPHEARDGQLLIRLDLNRKEVLTLRLRNGGTQSVTLTHLFPLCRTPQFAFYNEDQELPCPLGPGECYELHVHCKTSFVGYFPATVLWELLGPGESGSEGAGTFYIARFLAAVAHSPLAAQLKPMTPFKRTRITGNPVVTNRIEEGERPDRAKGYDLELSMALGTYYPPPRLRQLLPMLLQGTSIFTAPKEIAEIKAQLETALKWRNYEVKLRLLLHLEELQMEHDIRHYDLESVPMTWDPVDQNPRLLTLEVPGVTESRPSVLRGDHLFALLSSETHQEDPITYKGFVHKVELDRVKLSFSMSLLSRFVDGLTFKVNFTFNRQPLRVQHRALELTGRWLLWPMLFPVAPRDVPLLPSDVKLKLYDRSLESNPEQLQAMRHIVTGTTRPAPYIIFGPPGTGKTVTLVEAIKQVVKHLPKAHILACAPSNSGADLLCQRLRVHLPSSIYRLLAPSRDIRMVPEDIKPCCNWDAKKGEYVFPAKKKLQEYRVLITTLITAGRLVSAQFPIDHFTHIFIDEAGHCMEPESLVAIAGLMEVKETGDPGGQLVLAGDPRQLGPVLRSPLTQKHGLGYSLLERLLTYNSLYKKGPDGYDPQFITKLLRNYRSHPTILDIPNQLYYEGELQACADVVDRERFCRWAGLPRQGFPIIFHGVMGKDEREGNSPSFFNPEEAATVTSYLKLLLAPSSKKGKARLSPRSVGVISPYRKQVEKIRYCITKLDRELRGLDDIKDLKVGSVEEFQGQERSVILISTVRSSQSFVQLDLDFNLGFLKNPKRFNVAVTRAKALLIIVGNPLLLGHDPDWKVFLEFCKENGGYTGCPFPAKLDLQQGQNLLQGLSKLSPSTSGPHSHDYLPQEREGEGGLSLQVEPEWRNEL
For the molecule B2, in the test with SARS-CoV-2 gRNA, the “enrichment in SARS-CoV-2 Probe I RNP capture” value was “found in the SARS-CoV-2 experiments” and the “target (unweighted spectral count of the protein in the RNP capture)” value was 16. In addition, in the test with HCoV-OC43 gRNA and sgRNA, the “target (unweighted spectral count, OC43 Probe II capture)” value is 24; the “target (unweighted spectral count, OC43 Probe II)” value is 37; the “background (unweighted spectral count, no-probe control)” value turned out to be 1; the “target (spectral count)” value amounted to 24. In addition, in the test with HCoV-OC43 gRNA and sgRNA, the “background (spectral count)” value is listed as 1. In addition, the “target (unweighted spectral count)” value in the test on HCoV-OC43 gRNA and sgRNA (24 hpi (type n_24_v)) is listed as 35. In the test with gRNA of HCoV-OC43, the “target (spectral count)” value amounted to 26; the “background (spectral count)” value came out at 1; the “target (spectral count, OC43 Probe I RNP capture)” value came out at 25; the “background (spectral count, no-probe control)” value is reported as 1. Further, in test [1], the “enrichment in SARS-CoV-2 Probe II RNP capture” value is reported as “found in the SARS-CoV-2 experiments” and the “background (unweighted spectral count in control)” value was found to be 1.

B3: DAZAP1: host protein, UniProt Q96EP5 (protein, UniProt Q96EP5 1-407, looked up)
DAZ-associated protein 1: MNNSGADEIGKLFVGGLDWSTTQETLRSYFSQYGEVVDCVIMKDKTTNQSRGFGFVKFKDPNCVGTVLASRPHTLDGRNIDPKPCTPRGMQPERTRPKEGWQKGPRSDNSKSNKIFVGGIPHNCGETELREYFKKFGVVTEVVMIYDAEKQRPRGFGFITFEDEQSVDQAVNMHFHDIMGKKVEVKRAEPRDSKSQAPGQPGASQWGSRVVPNAANGWAGQPPPTWQQGYGPQGMWVPAGQAIGGYGPPPAGRGAPPPPPPFTSYIVSTPPGGFPPPQGFPQGYGAPPQFSFGYGPPPPPPDQFAPPGVPPPPATPGAAPLAFPPPPSQAAPDMSKPPTAQPDFPYGQYAGYGQDLSGFGQGFSDPSQQPPSYGGPSVPGSGGPPAGGSGFGRGQNHNVQGFHPYRR
As to B3, the “target (unweighted spectral count of the protein in the RNP capture)” value in the test with SARS-CoV-2 gRNA is 13. Also, in the test with HCoV-OC43 gRNA and sgRNA, the “target (unweighted spectral count, OC43 Probe II capture)” value was determined as 13; the “target (unweighted spectral count, OC43 Probe II)” value was determined as 22; the “background (unweighted spectral count, no-probe control)” value stood at 1; the “target (spectral count)” value worked out at 13. The “background (spectral count)” value in the test on HCoV-OC43 gRNA and sgRNA is recorded as 2. In the test on HCoV-OC43 gRNA and sgRNA (24 hpi (type n_24_v)), the “target (unweighted spectral count)” value was found to be 7. Besides, in the test on gRNA of HCoV-OC43, the “target (spectral count)” value is 11; the “background (spectral count)” value was determined as 1; the “target (spectral count, OC43 Probe I RNP capture)” value was determined as 18; the “background (spectral count, no-probe control)” value amounted to 1. In test [1], the “target (unweighted spectral count in RNP capture)” value is 11 and the “background (unweighted spectral count in control)” value came to 1.

B4: TRA2B: host protein, UniProt P62995 (protein, UniProt P62995 2-288, looked up)
Transformer-2 protein homolog …: SDSGEQNYGERESRSASRSGSAHGSGKSARHTPARSRSKEDSRRSRSKSRSRSESRSRSRRSSRRHYTRSRSRSRSHRRSRSRSYSRDYRRRHSHSHSPMSTRRRHVGNRANPDPNCCLGVFGLSLYTTERDLREVFSKYGPIADVSIVYDQQSRRSRGFAFVYFENVDDAKEAKERANGMELDGRRIRVDFSITKRPHTPTPGIYMGRPTYGSSRRRDYYDRGYDRGYDDRDYYSRSYRGGGGGGGGWRAAQDRDQIYRRRSPSPYYSRGGYRSRSRSRSYSPRRY
On to B4, for which the “target (unweighted spectral count of the protein in the RNP capture)” value with SARS-CoV-2 gRNA worked out at 13. Further, in the test on HCoV-OC43 gRNA and sgRNA, the “target (unweighted spectral count, OC43 Probe II capture)” value is given as 15; the “target (unweighted spectral count, OC43 Probe II)” value came out at 12; the “background (unweighted spectral count, no-probe control)” value was 2; the “target (spectral count)” value is on record as 15. Further, the “background (spectral count)” value in the test on HCoV-OC43 gRNA and sgRNA turned out to be 2. Further, in the test with HCoV-OC43 gRNA and sgRNA (12 hpi (type n_12_v)), the “target (unweighted spectral count)” value was 5. Moreover, in the test with gRNA of HCoV-OC43, the “target (spectral count, OC43 Probe I RNP capture)” value is listed as 10 and the “background (spectral count, no-probe control)” value is 2. Moreover, in test [1], the “target (unweighted spectral count in RNP capture)” value is 8 and the “background (unweighted spectral count in control)” value stood at 1.

B5: NONO: host protein, UniProt Q15233 (protein, UniProt Q15233 1-471, looked up)
Non-POU domain-containing …: MQSNKTFNLEKQNHTPRKHHQHHHQQQHHQQQQQQPPPPPIPANGQQASSQNEGLTIDLKNFRKPGEKTFTQRSRLFVGNLPPDITEEEMRKLFEKYGKAGEVFIHKDKGFGFIRLETRTLAEIAKVELDNMPLRGKQLRVRFACHSASLTVRNLPQYVSNELLEEAFSVFGQVERAVVIVDDRGRPSGKGIVEFSGKPAARKALDRCSEGSFLLTTFPRPVTVEPMDQLDDEEGLPEKLVIKNQQFHKEREQPPRFAQPGSFEYEYAMRWKALIEMEKQQQDQVDRNIKEAREKLEMEMEAARHEHQVMLMRQDLMRRQEELRRMEELHNQEVQKRKQLELRQEEERRRREEEMRRQQEEMMRRQQEGFKGTFPDAREQEIRMGQMAMGGAMGINNRGAMPPAPVPAGTPAPPGPATMMPDGTLGLTPPTTERFGQAATMEGIGAIGGTPPAFNRAAPGAEFAPNKRRRY
As for B5, the “enrichment in SARS-CoV-2 Probe I RNP capture” value in the test with SARS-CoV-2 gRNA was “found in the SARS-CoV-2 experiments”. Also, in the test with HCoV-OC43 gRNA and sgRNA, the “target (unweighted spectral count, OC43 Probe II capture)” value stood at 23; the “target (unweighted spectral count, OC43 Probe II)” value was found to be 31; the “background (unweighted spectral count, no-probe control)” value came out at 3; the “target (spectral count)” value was found to be 23. In addition, the “background (spectral count)” value in the test on HCoV-OC43 gRNA and sgRNA is recorded as 4. In the test on HCoV-OC43 gRNA and sgRNA (12 hpi (type n_12_v)), the “target (unweighted spectral count)” value is listed as 4. In addition, the “target (unweighted spectral count)” value in the test with HCoV-OC43 gRNA and sgRNA (24 hpi (type n_24_v)) is 14. Also, in the test on gRNA of HCoV-OC43, the “target (spectral count)” value was 28; the “background (spectral count)” value is 6; the “target (spectral count, OC43 Probe I RNP capture)” value is on record as 36; the “background (spectral count, no-probe control)” value was 3. Also, in test [1], the “enrichment in SARS-CoV-2 Probe II RNP capture” value is recorded as “found in the SARS-CoV-2 experiments” and the “background (unweighted spectral count in control)” value worked out at 1.
